Changes are numbered by the printed parent chain. Names may count otherwise.

The data set “SEC” concerns the molecule itself. The data set can be described thus: SEC. For orientation: Size exclusion chromatography separates by hydrodynamic size, large species first.
The data set “NMR titration” deals with the molecule itself. Kind of data set: NMR titration.
The data set “AUC” concerns the molecule itself. Kind of data set: AUC.
The next data set deals with Ubiquitin (UniProt P0CG48 1-76). Kind of data set: NMR titration.

B1: UBQLN2 450–624 P506A (domain or fragment)
chain: RAMQALMQIQQGLQTLATEAPGLIPSFTPGVGVGVLGTAIGPVGPVTPIGPIGPIVAFTPIGPIGPIGPTGPAAPPGSTGSGGPTGPTVSSAAPSETTSPTSESGPNQQFIQQMVQALAGANAPQLPNPEVRFQQQLEQLNAMGFLNREANLQALIATGGDINAAIERLLGSQPSW
As to B1, in “SEC”, the binding result is recorded as “binds”.

B2: UBQLN2 450–624 P497H (domain or fragment)
chain: B1 chain with P48H, A57P
Turning to B2, the binding result in the data set “SEC” is recorded as “binds”.

B3: UBQLN2 450–624 P509S (domain or fragment)
chain: B1 chain with A57P, P60S
Turning to B3, the binding result in the data set “NMR titration” is listed as “binds”.

B4: UBQLN2 450–624 P506S (domain or fragment)
chain: B1 chain with A57S
Turning to B4, in the data set “SEC”, the binding result was “binds”.

B5: UBQLN2 450–624 A488T (domain or fragment)
chain: B1 chain with A39T, A57P
B5: the binding result in “SEC” is “binds”.

B6: UBQLN2 450–624 P497L (domain or fragment)
chain: B1 chain with P48L, A57P
B6: in “AUC”, the binding result is given as “binds”.

B7: UBQLN2 450–624 (domain or fragment)
chain: B1 chain with A57P
Regarding B7, the binding result with Ubiquitin is given as “binds”.

B8: UBQLN2 450–624 P500S (domain or fragment)
chain: B1 chain with P51S, A57P
B8: the binding result in “NMR titration” is “binds”.

B9: UBQLN2 450–624 P497S (domain or fragment)
chain: B1 chain with P48S, A57P
For the molecule B9, the binding result in the data set “AUC” is “binds”.

B10: UBQLN2 450–624 P506T (domain or fragment)
chain: B1 chain with A57T
Take B10: the binding result in the data set “SEC” is reported as “binds”.

B11: UBQLN2 450–624 T487I (domain or fragment)
chain: B1 chain with T38I, A57P
Regarding B11, the binding result in the data set “AUC” was “binds”.

The values above are taken from paper PMC6551275 (Structure (London, England : 1993), 2019).
